According to patent US20140072613A1, “Compositions and Methods for Treating Cutaneous Scarring” (priority 2012, published 2014):

Assays:
Experiment in all cases: biochemical
Type in all cases: biochemical
266 human kinases [1] = biological target: 266 human kinases (Homo sapiens, UniProt P00519, M351T); details: Abl(M351T)(h); 100 μM
Procedure, shortened: (§1)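 Inhibition was judged from reduced transfer of labelled phosphate from ATP to a positively charged substrate, which was captured on a negatively charged membrane and quantified by scintillation counting against a 100% activity control.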

266 human kinases [2] = biological target: 266 human kinases (Homo sapiens, UniProt P07949, V804M); details: Ret(V804M)(h); 100 μM
Procedure, shortened: as §1

266 human kinases [3] = biological target: 266 human kinases (Homo sapiens, UniProt P10721, D816H); details: cKit(D816H)(h); 100 μM
Procedure, shortened: as §1

266 human kinases [4] = biological target: 266 human kinases (Homo sapiens, UniProt P50750); details: CDK9/cyclin T1(h); 100 μM
Procedure, shortened: as §1

266 human kinases [5] = biological target: T1, 266 human kinases (Homo sapiens, UniProt P51817); details: PrKX(h); 100 μM
T1 sequence (P51817 1-358): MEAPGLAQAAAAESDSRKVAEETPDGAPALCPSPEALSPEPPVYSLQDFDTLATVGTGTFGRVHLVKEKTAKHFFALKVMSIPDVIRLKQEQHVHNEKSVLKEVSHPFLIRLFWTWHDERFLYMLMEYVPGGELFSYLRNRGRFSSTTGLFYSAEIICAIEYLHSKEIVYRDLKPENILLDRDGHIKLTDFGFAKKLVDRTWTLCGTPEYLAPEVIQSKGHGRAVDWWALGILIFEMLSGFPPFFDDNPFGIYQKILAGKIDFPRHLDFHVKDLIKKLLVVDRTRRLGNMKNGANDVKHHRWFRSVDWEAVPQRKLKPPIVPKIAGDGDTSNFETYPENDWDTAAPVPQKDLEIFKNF
Procedure, shortened: as §1

266 human kinases [6] = biological target: T2, 266 human kinases (Homo sapiens, UniProt P52333); details: JAK3(h); 100 μM
T2 sequence (P52333 1-1124): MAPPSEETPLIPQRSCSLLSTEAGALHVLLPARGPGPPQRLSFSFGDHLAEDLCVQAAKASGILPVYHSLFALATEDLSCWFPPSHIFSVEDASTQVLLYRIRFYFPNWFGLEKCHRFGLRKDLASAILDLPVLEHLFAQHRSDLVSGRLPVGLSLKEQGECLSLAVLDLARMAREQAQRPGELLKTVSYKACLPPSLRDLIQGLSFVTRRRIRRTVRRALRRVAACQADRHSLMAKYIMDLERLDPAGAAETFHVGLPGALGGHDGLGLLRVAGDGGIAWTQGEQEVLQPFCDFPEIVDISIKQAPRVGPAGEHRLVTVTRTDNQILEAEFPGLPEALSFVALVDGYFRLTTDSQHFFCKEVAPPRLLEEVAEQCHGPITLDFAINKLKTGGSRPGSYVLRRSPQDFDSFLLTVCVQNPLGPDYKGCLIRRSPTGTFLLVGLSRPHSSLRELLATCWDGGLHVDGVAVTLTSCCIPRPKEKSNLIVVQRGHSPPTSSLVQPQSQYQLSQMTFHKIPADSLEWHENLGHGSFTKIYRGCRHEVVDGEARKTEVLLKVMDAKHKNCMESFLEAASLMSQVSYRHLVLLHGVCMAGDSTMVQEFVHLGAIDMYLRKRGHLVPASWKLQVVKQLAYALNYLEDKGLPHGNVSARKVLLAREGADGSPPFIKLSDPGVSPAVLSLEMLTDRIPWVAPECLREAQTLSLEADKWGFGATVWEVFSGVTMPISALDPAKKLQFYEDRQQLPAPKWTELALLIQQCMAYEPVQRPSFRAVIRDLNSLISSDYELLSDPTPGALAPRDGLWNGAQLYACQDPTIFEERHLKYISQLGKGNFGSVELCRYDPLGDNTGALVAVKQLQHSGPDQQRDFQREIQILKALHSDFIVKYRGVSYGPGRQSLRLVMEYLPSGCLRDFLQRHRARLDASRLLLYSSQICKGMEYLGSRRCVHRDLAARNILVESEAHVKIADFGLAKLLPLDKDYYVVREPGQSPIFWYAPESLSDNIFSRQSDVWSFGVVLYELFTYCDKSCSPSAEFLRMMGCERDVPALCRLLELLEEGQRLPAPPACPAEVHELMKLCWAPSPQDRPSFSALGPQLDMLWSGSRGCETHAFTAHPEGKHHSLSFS
Procedure, shortened: as §1

266 human kinases [7] = biological target: 266 human kinases (Homo sapiens, UniProt Q00526); details: CDK3/cyclinE(h); 100 μM
Procedure, shortened: as §1

266 human kinases [8] = biological target: 266 human kinases (Homo sapiens, UniProt Q06187, R28H); details: BTK(R28H)(h); 100 μM
Procedure, shortened: as §1

266 human kinases [9] = biological target: 266 human kinases (Homo sapiens, UniProt Q15418); details: Rsk1(h); 100 μM
Procedure, shortened: as §1

266 human kinases [10] = biological target: 266 human kinases (Homo sapiens, UniProt Q16539); details: SAPK2a(h); 100 μM
Procedure, shortened: as §1

266 human kinases [11] = biological target: 266 human kinases (Homo sapiens, UniProt Q9H422); details: HIPK3(h); 100 μM
Procedure, shortened: as §1

266 human kinases [12] = biological target: 266 human kinases (Homo sapiens, UniProt Q9Y243); details: PKBγ(h); 100 μM
Procedure, shortened: as §1

266 human kinases [13] = biological target: 266 human kinases (Homo sapiens, UniProt P07333, Y969C); details: Fms(Y969C)(h); 100 μM
Procedure, shortened: as §1

266 human kinases [14] = biological target: 266 human kinases (Homo sapiens, UniProt P49760); details: CLK2(h); 100 μM
Procedure, shortened: as §1

266 human kinases [15] = biological target: 266 human kinases (Homo sapiens, UniProt P53350); details: Plk1(h); 100 μM
Procedure, shortened: as §1

266 human kinases [16] = biological target: 266 human kinases (Homo sapiens, UniProt Q9Y6M4); details: CK1γ3(h); 100 μM
Procedure, shortened: as §1

266 human kinases (Homo sapiens, UniProt P49760), sequence (P49760 whole entry): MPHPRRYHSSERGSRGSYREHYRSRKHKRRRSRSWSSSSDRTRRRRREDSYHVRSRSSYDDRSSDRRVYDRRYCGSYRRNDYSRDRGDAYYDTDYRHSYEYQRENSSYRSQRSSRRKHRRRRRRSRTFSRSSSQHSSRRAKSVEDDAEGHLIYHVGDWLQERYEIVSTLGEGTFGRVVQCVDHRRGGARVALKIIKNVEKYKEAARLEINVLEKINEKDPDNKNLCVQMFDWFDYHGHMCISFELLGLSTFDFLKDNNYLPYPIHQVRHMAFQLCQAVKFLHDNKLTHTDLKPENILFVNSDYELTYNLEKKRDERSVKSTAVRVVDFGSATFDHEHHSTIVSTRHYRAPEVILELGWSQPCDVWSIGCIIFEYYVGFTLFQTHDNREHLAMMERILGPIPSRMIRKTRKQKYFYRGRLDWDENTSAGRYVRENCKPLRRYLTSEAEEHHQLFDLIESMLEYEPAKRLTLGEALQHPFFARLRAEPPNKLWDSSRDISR
266 human kinases (Homo sapiens, UniProt Q16539), sequence (Q16539 whole entry): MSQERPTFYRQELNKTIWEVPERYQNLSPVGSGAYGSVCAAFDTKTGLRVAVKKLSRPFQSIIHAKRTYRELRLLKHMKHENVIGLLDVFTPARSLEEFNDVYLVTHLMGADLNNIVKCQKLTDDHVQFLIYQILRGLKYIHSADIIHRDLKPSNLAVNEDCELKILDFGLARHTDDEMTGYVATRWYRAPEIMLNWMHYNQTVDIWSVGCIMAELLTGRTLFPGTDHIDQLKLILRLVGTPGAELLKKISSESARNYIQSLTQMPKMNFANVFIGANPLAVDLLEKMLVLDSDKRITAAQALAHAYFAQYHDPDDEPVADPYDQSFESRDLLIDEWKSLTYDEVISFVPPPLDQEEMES
266 human kinases (Homo sapiens, UniProt Q15418), sequence (Q15418 whole entry): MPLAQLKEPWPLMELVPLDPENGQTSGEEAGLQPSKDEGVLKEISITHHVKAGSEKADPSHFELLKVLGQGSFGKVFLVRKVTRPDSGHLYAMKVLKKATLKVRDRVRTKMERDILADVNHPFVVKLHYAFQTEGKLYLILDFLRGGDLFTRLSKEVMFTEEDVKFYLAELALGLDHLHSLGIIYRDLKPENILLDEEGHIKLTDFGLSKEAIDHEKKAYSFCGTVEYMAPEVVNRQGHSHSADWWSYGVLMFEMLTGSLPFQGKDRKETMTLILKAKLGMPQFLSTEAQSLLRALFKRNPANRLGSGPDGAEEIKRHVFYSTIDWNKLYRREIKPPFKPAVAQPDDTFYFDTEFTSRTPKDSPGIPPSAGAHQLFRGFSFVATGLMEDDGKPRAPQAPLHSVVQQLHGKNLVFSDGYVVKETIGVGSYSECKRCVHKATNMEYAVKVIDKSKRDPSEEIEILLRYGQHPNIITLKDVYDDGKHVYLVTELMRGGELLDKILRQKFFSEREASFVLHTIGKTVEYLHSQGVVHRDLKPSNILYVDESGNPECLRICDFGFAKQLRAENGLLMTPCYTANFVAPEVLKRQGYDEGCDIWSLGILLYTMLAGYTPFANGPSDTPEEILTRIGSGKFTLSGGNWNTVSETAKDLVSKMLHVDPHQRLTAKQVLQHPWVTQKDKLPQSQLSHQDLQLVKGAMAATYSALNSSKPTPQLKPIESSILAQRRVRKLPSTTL
266 human kinases (Homo sapiens, UniProt Q06187, R28H), sequence (Q06187 whole entry R28H): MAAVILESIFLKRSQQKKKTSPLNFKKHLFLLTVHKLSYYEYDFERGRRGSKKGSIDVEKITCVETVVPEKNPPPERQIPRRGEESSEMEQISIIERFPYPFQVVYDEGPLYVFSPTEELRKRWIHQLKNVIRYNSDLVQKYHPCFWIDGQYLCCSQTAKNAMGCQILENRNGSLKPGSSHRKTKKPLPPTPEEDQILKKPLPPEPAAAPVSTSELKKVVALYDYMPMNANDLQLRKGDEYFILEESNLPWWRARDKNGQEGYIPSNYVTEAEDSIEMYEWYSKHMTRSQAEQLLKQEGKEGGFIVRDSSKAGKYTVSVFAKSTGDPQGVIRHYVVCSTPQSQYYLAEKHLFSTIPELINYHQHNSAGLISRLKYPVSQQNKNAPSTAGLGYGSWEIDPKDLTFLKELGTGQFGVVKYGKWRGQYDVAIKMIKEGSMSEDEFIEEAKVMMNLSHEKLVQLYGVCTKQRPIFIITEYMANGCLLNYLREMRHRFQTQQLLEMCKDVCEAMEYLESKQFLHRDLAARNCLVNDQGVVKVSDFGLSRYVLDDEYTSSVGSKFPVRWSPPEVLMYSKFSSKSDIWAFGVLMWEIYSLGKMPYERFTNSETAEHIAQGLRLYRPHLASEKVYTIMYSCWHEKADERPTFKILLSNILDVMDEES
266 human kinases (Homo sapiens, UniProt P53350), sequence (P53350 whole entry): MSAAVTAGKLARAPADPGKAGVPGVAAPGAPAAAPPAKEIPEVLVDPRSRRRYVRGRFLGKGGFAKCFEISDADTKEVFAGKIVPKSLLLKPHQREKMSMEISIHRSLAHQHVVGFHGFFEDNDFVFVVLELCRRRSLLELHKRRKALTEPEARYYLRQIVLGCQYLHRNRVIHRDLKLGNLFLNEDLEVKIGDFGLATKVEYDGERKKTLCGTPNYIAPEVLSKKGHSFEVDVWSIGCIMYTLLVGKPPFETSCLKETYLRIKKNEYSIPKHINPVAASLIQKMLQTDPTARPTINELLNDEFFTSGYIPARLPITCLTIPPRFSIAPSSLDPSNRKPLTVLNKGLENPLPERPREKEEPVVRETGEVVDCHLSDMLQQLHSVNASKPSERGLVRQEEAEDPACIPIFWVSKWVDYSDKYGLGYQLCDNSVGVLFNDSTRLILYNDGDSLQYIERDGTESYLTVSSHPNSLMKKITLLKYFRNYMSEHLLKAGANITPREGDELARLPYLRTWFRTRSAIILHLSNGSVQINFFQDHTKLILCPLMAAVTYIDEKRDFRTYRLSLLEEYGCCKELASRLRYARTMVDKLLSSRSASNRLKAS
266 human kinases (Homo sapiens, UniProt Q00526), sequence (Q00526 whole entry): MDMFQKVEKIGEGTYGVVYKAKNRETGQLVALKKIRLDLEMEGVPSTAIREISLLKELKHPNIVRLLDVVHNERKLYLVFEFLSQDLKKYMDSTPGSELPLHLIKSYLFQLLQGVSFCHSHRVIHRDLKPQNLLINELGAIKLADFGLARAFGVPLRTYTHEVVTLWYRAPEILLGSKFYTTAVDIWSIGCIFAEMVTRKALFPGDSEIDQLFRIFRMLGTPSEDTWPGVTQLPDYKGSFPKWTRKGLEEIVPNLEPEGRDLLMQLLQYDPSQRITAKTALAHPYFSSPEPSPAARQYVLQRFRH
266 human kinases (Homo sapiens, UniProt P50750), sequence (P50750 whole entry): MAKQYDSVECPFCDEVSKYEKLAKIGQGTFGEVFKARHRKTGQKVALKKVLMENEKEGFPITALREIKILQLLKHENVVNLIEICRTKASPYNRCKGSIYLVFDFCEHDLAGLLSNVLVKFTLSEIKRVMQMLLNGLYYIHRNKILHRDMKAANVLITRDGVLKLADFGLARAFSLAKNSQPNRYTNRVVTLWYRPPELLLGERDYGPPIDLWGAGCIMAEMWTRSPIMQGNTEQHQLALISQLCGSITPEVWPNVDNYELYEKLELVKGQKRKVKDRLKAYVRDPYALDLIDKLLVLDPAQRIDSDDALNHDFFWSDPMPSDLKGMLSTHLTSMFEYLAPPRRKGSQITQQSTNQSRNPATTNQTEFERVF
266 human kinases (Homo sapiens, UniProt Q9Y6M4), sequence (Q9Y6M4 whole entry): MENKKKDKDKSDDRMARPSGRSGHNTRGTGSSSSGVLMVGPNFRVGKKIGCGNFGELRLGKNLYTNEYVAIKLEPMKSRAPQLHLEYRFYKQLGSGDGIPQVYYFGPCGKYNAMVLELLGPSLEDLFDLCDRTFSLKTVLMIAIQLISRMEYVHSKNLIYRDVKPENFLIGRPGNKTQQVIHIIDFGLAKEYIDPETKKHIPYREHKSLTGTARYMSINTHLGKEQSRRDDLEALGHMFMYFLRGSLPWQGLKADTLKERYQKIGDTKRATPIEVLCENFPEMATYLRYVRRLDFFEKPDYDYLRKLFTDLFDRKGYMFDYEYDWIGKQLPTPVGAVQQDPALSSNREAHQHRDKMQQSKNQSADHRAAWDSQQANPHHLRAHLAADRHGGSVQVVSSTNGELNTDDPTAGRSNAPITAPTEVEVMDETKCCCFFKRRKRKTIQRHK
266 human kinases (Homo sapiens, UniProt Q9Y243), sequence (Q9Y243 whole entry): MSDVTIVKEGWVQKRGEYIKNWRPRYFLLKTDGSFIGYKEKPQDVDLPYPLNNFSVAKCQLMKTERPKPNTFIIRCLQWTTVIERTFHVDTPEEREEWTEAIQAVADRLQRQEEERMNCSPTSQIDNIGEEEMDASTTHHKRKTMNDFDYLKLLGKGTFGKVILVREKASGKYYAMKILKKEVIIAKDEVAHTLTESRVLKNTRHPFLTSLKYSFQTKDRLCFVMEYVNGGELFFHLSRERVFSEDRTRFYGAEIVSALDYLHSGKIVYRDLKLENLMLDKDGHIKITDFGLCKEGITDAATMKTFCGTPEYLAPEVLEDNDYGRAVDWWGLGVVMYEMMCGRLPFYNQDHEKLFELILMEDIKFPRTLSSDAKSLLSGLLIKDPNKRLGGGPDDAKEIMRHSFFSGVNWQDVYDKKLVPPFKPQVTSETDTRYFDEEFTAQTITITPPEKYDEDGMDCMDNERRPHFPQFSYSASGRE

Sequence | % activity (266 human kinases [1]) [%] | % activity (266 human kinases [2]) [%] | % activity (266 human kinases [3]) [%] | % activity (266 human kinases [4]) [%] | % activity (266 human kinases [5]) [%] | % activity (266 human kinases [6]) [%] | % activity (266 human kinases [7]) [%] | % activity (266 human kinases [8]) [%] | % activity (266 human kinases [9]) [%] | % activity (266 human kinases [10]) [%] | % activity (266 human kinases [11]) [%] | % activity (266 human kinases [12]) [%] | % activity (266 human kinases [13]) [%] | % activity (266 human kinases [14]) [%] | % activity (266 human kinases [15]) [%] | % activity (266 human kinases [16]) [%]
HRRIKAWLKKIKALARQLGVAA (mammal) [MMI-0500] | 61 | 36 | 194 | 6 | 57 | 95 | 8 | 10 | 34 | 52 | 85 | 20 |  |  |  | 
YARAAARQARAKALNRQLGVA (mammal) [MMI-0200] |  |  |  |  |  |  |  |  |  |  |  |  | 88 | 97 | 128 | 96
